Measured values reported in the supplement of paper PMC7877785.
± gives the uncertainty stated by the source.

Assay: self-splicing fitness, log relative to wild type (ln ratio); higher = more splicing; Tetrahymena group I intron in knt gene, E. coli kanamycin selection, DiMSum; sequences stand for … in CUCUCU…GGAGGGAAAAGUUAUCAGGCAUGCACCUGGUAGCUAGUCUUUAAACCAAUAGAUUGCAUCGGUUUAAAAGGCAAGACCGUCAAAUUGCGGGAAAGGGGUCAACAGCCGUUCAGUACCAAGUCUCAGGGGAAACUUUGAGAUGGCCUUGCAAAGGGUAUGGUAAUAAGCUGACGGACAUGGUCCUAACCACGCAGCCAAGUCCUAAGUCAACAGAUCUUCUGUUGAUAUGGAUGCAGUUCACAGACUAAAUGUCGGUCGGGGAAGAUGUAUUCUUCUCAUAAGAUAUAGUCGGACCUCUCCUUAAUGGGAGCUAGCGGAUGAAGUGAUGCAACACUGGAGCCGCUGGGAACUAAUUUGUAUGCGAAAGUAUAUUGAUUAGUUUUGGAGUACUCGUGGUCG
Summary of the method: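 Library with all eight P1ex-region intron nucleotides randomised, intron inside the knt kanamycin-resistance gene on pET-22b(+), in E. coli BL21(DE3). Cells grew overnight at 37°C or 30°C on LB agar with or without 25 μg/mL kanamycin (plus 100 μg/mL carbenicillin, 50 μM IPTG, 0.2% rhamnose), in six replicate transformations. Pooled colonies were amplicon-sequenced on Illumina HiSeq 2500. DiMSum fitness is the error-weighted combination of wild-type-normalised replicate fold changes, kanamycin versus none.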

Sequence | self-splicing fitness (ln) (30 °C) | self-splicing fitness (ln) (37 °C)
GCAAAGCAAUAUUACGUGAU | -0.863 ± 0.053 | -0.973 ± 0.075
GCAAAGCAAUAUUACGUGUA | -0.807 ± 0.071 | -0.701 ± 0.074
GCAAAGCAAUAUUACGUUCG | -1.51 ± 0.08 | -0.192 ± 0.12
GCAAAGCAAUAUUACGUUCU | -1.44 ± 0.094 | -0.638 ± 0.097
GCACAGCAAUAUUACGAACA | -1.42 ± 0.11 | -0.85 ± 0.1
GCACAGCAAUAUUACGAAGG | -1.31 ± 0.065 | -0.444 ± 0.096
GCACAGCAAUAUUACGAGCA | -1.55 ± 0.11 | -0.832 ± 0.12
GCACAGCAAUAUUACGAUCG | -1.08 ± 0.05 | -0.27 ± 0.069
GCACAGCAAUAUUACGCAUA | -0.997 ± 0.088 | -0.269 ± 0.085
GCACAGCAAUAUUACGCCUU | -0.943 ± 0.092 | -0.623 ± 0.087
GCACAGCAAUAUUACGCGAA | -0.472 ± 0.066 | 0.308 ± 0.071
GCACAGCAAUAUUACGCGCU | -2.39 ± 0.22 | -1.1 ± 0.19
GCACAGCAAUAUUACGGGCA | -1.84 ± 0.11 | -0.886 ± 0.094
GCACAGCAAUAUUACGGUAU | -0.511 ± 0.038 | 0.102 ± 0.059
GCACAGCAAUAUUACGUCGU | -0.704 ± 0.083 | 0.241 ± 0.091
GCACAGCAAUAUUACGUGGA | -0.386 ± 0.064 | -0.281 ± 0.065
GCACAGCAAUAUUACGUGGU | -3.37 ± 0.12 | -1.82 ± 0.097
GCACAGCAAUAUUACGUGUA | -1.03 ± 0.052 | -0.512 ± 0.056
GCACAGCAAUAUUACGUGUG | -3.68 ± 0.16 | -2.22 ± 0.14
GCACAGCAAUAUUACGUUGA | -0.837 ± 0.071 | -0.158 ± 0.072
GCAGAGCAAUAUUACGAAAU | -4.35 ± 0.29 | -2.79 ± 0.26
GCAGAGCAAUAUUACGACAA | -1.8 ± 0.46 | -0.677 ± 0.43
GCAGAGCAAUAUUACGAGCG | -2.33 ± 0.29 | -1.41 ± 0.23
GCAGAGCAAUAUUACGAUUA | -2.28 ± 0.22 | 0.0469 ± 0.18
GCAGAGCAAUAUUACGAUUC | -2.56 ± 0.26 | -0.2 ± 0.22

Sequence | self-splicing fitness (ln) (30 °C) | self-splicing fitness (ln) (37 °C)
GCAGAGCAAUAUUACGCAAA | -3.37 ± 0.38 | 
GCAGAGCAAUAUUACGCAGA | -2.78 ± 0.42 | -2.22 ± 0.34
GCAGAGCAAUAUUACGCCUU |  | -2.46 ± 0.33
GCAGAGCAAUAUUACGCGAG | -3.58 ± 0.35 | -2.46 ± 0.28
GCAGAGCAAUAUUACGCUAC |  | -1.68 ± 0.32
GCAGAGCAAUAUUACGCUUG | -3.5 ± 0.21 | -2.83 ± 0.31
GCAGAGCAAUAUUACGGAGU | -3.24 ± 0.2 | -2.05 ± 0.27
GCAGAGCAAUAUUACGGGUU | -3.83 ± 0.3 | -2.6 ± 0.3
GCAGAGCAAUAUUACGGUCG | -3.23 ± 0.12 | -1.44 ± 0.1
GCAGAGCAAUAUUACGUCUA | -2.7 ± 0.23 | -2.57 ± 0.24
GCAGAGCAAUAUUACGUCUG | -3.95 ± 0.33 | -3.13 ± 0.47
GCAGAGCAAUAUUACGUGAC | -2.91 ± 0.12 | -1.54 ± 0.11
GCAGAGCAAUAUUACGUGGA | -2.94 ± 0.4 | -3.35 ± 0.39
GCAGAGCAAUAUUACGUGUA | -3.61 ± 0.35 | -1.17 ± 0.16
GCAGAGCAAUAUUACGUGUU | -4.35 ± 0.3 | -2.42 ± 0.18
GCAGAGCAAUAUUACGUUCC |  | -1.51 ± 0.29
GCAGAGCAAUAUUACGUUCU | -2.78 ± 0.24 | -2.18 ± 0.29
GCAGAGCAAUAUUACGUUGA | -2.53 ± 0.2 | -2.15 ± 0.25
GCAUAGCAAUAUUACGAAGA | -2 ± 0.23 | -0.497 ± 0.16
GCAUAGCAAUAUUACGAUGC | -2.72 ± 0.28 | 
GCAUAGCAAUAUUACGCAUG | -3.79 ± 0.23 | -2.12 ± 0.19
GCAUAGCAAUAUUACGCCUC | -1.01 ± 0.23 | -0.756 ± 0.28
GCAUAGCAAUAUUACGCGCG | -1.06 ± 0.079 | -0.259 ± 0.092
GCAUAGCAAUAUUACGCUAG | -2.24 ± 0.3 | -1.82 ± 0.23
